Experimental data reported in the nanobody polyreactivity screen of Harvey et al. (2022).

experiment: yeast display, Sf9 membrane polyspecificity reagent, FACS + sequencing; frameworks hold sequencing errors
In short: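 Sorting gates, low and high (top ~1%), were placed on anti-HA fluorescence to track expression and on streptavidin fluorescence to track reagent binding. A clone's polyreactivity label is taken from the gate it came out of. The reagent was 10% biotinylated, detergent-solubilized Sf9 membrane, applied for 1 hour at 4 °C to galactose-induced yeast display cells.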

Row | Sequence | polyreactivity (PSR sort gate)
1 | QVQLVESGGGLVQAGGSLRLSCAASGRIFSYNAMGWYRQAPGKERELVAAISYSGGRTYYADSVKGRFTISRDNAKNTVYLQMNSLKPEDTAVYYCAAAYGGSLRYTAGYYWGQGTQVTVSS | high polyreactivity
2 | QVQLVESGGGLVQAGGSLRLSCAASGLTFYSYAMGWYRQAPGKERELVAAISKSGGSTYYADSVKGRFTISRDNAKNTVYLQMNSLKPEDTAVYYCNALTKTGTPPDYDYWGQGTQVTVSS | high polyreactivity
3 | QVQLVESGGGLVQAGGSLRLSCAASGRIFTSNVMGWYRQAPGKERELVAAISWTGGNTYYADSVKGRFTISRDKAKNSVYLQMNSLKPEDTAVYYCAVTYWSAVFIPNKYDYWGQGTQVTVSS | low polyreactivity
4 | QVQLVESGGGLVQAGGSLRLSCAASGRILVFYAMGGYRQAPGIERELVAAISKSVRPTYYADSVKGRFTISRDNAQNTVYLQMNSLKPEDTAVYYCNTRSASDLWPQYGYWGQGTQVTVSS | low polyreactivity
5 | QVQLVESGGGLVQAGGSLRLSCAASGSTSDINAMGWYRQAPGKERELVAVITDSSNTDYADSVKGRFTISRDNAKNTVYLQMNSLKPEDTADDYCAADRDEPDPYDYWGQGTQVTVSS | low polyreactivity
6 | QVQLVESGGRLVQAGGSLRLSCAASGFTFPTYAMGWYRQAPGKERELVAAITRGGSTYYADSVKGRFTISRDNAKNTVYLQMNSLKPEDTAVYYCAADDPWYEEDYWGQGTQVTVSS | low polyreactivity
7 | QVQLVESGGGLVQAGGSLRLSCAASGSIFSQYVMGWYRQAPGKERELVAAISSGGITYYADSVKGRFTISRDNAKNTVYLQMNSLKPEDTAVYYCNKTSWYQYGYWGQGTQVTVSS | low polyreactivity
8 | QVQLVESGGGLVQAGGSLRLSCAASGSIFPDYAMGWYRQAPGKERELVAAITTSGGNTYYADSVKGRFTISRDNAKNTVYLQMNSLKPEDTAVYYCAAEITYSYPGSPRRRDYWGQGTQLTVSS | low polyreactivity
9 | QVQLVESGGGLVQAGGSLRLSCAASGSTFRQYAMGWYRQAPGKERELVAAISTNGVSTRYADSVKGRFTISRDNAKNTVYLQMNSLKPEDTAVYSCAAGYRKSYTYYRYDYWGQGTQVTVSS | high polyreactivity
10 | QVQLVESGGGLVQAGGSLRLSCAASGFILPYYAMGWYRQAPGKERELVAAISDTGRTNYADSVKGRFTISRDNAKYTVYLQMNSLKPEDTAVYYCAARYYSPRYWFRYDSWGQCTQVTVSS | high polyreactivity
11 | QVQLVESGGGLVQAGGSLRLSCAASGFIIDRNAMGWSRPAPGKERELVAAITWSTTSTYYADSVKGRFTISRDNAKNTVYLQMNSLKPEDTAVYYCAADITSPAYATYDYWGQGTQVTVSS | low polyreactivity
12 | QVQLVESGGGLVQAGGSLRLSCAASGRTFSYNAMGWYRQAPGKERELVASISSSGTSTSYADSVKGRFTISRDNAKNTVYLQMNSLKPEDTAVYYCATVRYPYWYSGPQNSRGYWGQGTQVTVSS | high polyreactivity
13 | QVQLVESGGGLVQAGGSLRLSCAASGFTFDYNAMGWYRQAPGKEREFVAAISSNGGSTYYADSVKGRFTISRDNAKNTVYFQMNSLKPEDTAVYYCAARYRSFVYWYGYWGQGTQVTVSS | high polyreactivity
14 | QVQLVESGGGLVQAGGSLRLSCAASGSTFRPYAMGWYRQAPGKERELVARITKNGGSTYYADSVKGRFTISRDNAKNTVYLQMNSLKPEDTEVYYCAVRAWDPYTGKSDYWGQGTQVTVSS | low polyreactivity
15 | QVQLVESGGGLVQAGGSLRLSCAASGRTFRYYAMGWYRQAPGKERELVAAISASGGSTFYADSVKGRFTISRDNAKNTVYLLMNSLKPEDTAVYYCAAYHYSVFPYKQYDYWGQGTQVTVSS | high polyreactivity
16 | QVQLVESGGGLVQAGGSLRVSCAASGSIFYSNAMGWYRQAPGKERELVAAITRRGGSTYYADSVKGRFTISRDIATNPVYLQMNSLIPEDTAVYYCAARSKTSNLFNYWGQGTQVTVSS | high polyreactivity
17 | QVQLVESGRGLVQAGGSLRLSCAASGSIFSGNAMGWYRQAPGKERELVAAISRSGGSTYYADSVKGRFTISRDNAKNTVYLQLYSLKPEDTAVYYCAAYRTHGPPRALRFDYWGQGTLVTVSS | high polyreactivity
18 | QVQLVESGGGLVQAGGSLRLSCAASGGTFRYNAMGWYRQAPGKERELVAAIRWSGGRTYYADSVKGRFTISRDNAKNTVFLQINSLKPEDTAVYYCAALYRGYAVAASYYLWGLGTQVTVSS | high polyreactivity
19 | QVQLVESGGGLVQAGGSLRLSCAASGIIFYLNAMGWYRQAPGKERELVAGITYSGGSTYYADSVKGRFTISRDNAKNTVYLQMNSLKPEDTAVYYCAARTKWYIFLYDYWGQGTQVTVSS | low polyreactivity
20 | QEQLQETGGGLVQAGGSLRLICASSGSIFFVYGMGWSRQAPGKERELVAGINAGTNTNYADSVRGRFTISRDNAKYTVHLQMNSLKPEDTAVYYCAADGNGYQAHEYWGQGTQVTVSS | high polyreactivity
21 | QVQLVESGGGLVQAGGSLRLSCAASGRTFVPNAMGWYRQAPGKERELVARISSGDSTYYADSVKGRFTISRDNAKNTVYLQMNSLKPEDTAVYYCAASGRQNGYGRRQYYYWGQGTQVTVSS | high polyreactivity
22 | QVQLVESGGGLVQAGGSLRLSCAASGNIFDAYGMGWNRQAPGKETELVAAIDWTGGSTYYADSVKGRFTISRDNAKNTVYLQMNSLKPEDTAVYYCAADWGGGYQQYGNDWVNYWGQGTQVTVSS | low polyreactivity

Row | Sequence | polyreactivity (PSR sort gate)
23 | QVQLVESGGGLVQAGGSLRLSCAASGRIFSWNAMGWYRQAPGKERELVAAISSGGSTIYADSVKGRFTISRDNAKNTVYLQMNSLKPEYTAVYYCATRNGYSGTYGYWGQGTQVTVSS | low polyreactivity
24 | QVELVESGGGLVQPGGSLRLSCAASGSTFYYYAMGWYRQAPGKERELVATISSGSSTNYADSVKGRFTISRDNAKNTVYLQMNSLKPEDTAVYYCAADRWYITLSIDATISYEYWGQGTQVTVSS | low polyreactivity
25 | QVQLVESGGGLVQAGGSLRLSCAASGSIFPYYAMGWYRQAPGKERELVATITYRGGSTNYADSVKGRFTISRDNAKNTVYLQMNSLKPEDTAVYYCAAYGYVLASPYPYSFVKLGYWGQGTQVTVSS | low polyreactivity
26 | QVQLVESGGGLVQAGGSLRLSCAASGRIFRYYTMGWYRQAPGKERELVATISWNGSNTYYADSVKGRFTISRDNAKNTVYLQMNSLKPEDTAVYYCAAGVLPGLYNGARLFDYWGHGTQVTVSS | low polyreactivity
27 | QVQLVESGGGLVQAGGSLRLSCAASGSTFFLYGRGWYRQARGKERELVATISKRGGSTHYADSVKGRFTISRDNAKNTVYVQKHSLKPEDTAVYYCAAGRPGVSFKEWSYKPSSSYDYWGQGTQVTVSS | low polyreactivity
28 | QVQLVESGGGLVQAGGSLRLSCAASGSIFVHNDMGGYRQAPGTERELVATIDSAGGTYYADSVKGRFTISRDNAKYTVYLQMNSLKPEDTAVYYCAAYGPYVLSIYDYWGQGTQVTVSS | low polyreactivity
29 | QVQLVESGGGLVQAGGSLRLSCAASGSTFYNYAMGWYRQAPGKERELVAAISSGGGITYYADSVKGRFTISRDNAKNTVYLQMNSLKPEDTAVYYCNARRKYLGYNYWGQGSQVTVSS | high polyreactivity
30 | QVQLVESGGGLDQAGGSLRLTCAASGRTIGSYAMGWYRQAPGKERELVAAISYSGGSTYYADSVKGRFTISRDNAKNTVYLQMNSLKPEDTAVYYCAKSWRYSIIQSYRAGYNYWGQGTQVTVSS | high polyreactivity
31 | QVQLVESGGALVQAGGSLRLSCAASGFIFYSWYAMGWYRQAPGKQRELVAAIRSGGSTYYADSVKGRFTISRDNAKNTVYLQMNSLKPEDTAVYYCAVKYSWSEYGYWGQGTQVTVSS | low polyreactivity
32 | QVQLVESGGGLFQAGGSLRLSCAASGSTFYTNAMGWYRQAPGKERELVAAISWSGGSTYYADSVKGRFTIARDNAKNPVYLQLNSLKPEDTAVYYCDVSGTHFRYDYWGQGTQVTVSS | high polyreactivity
33 | QVQLVESGGGLDQAGGSLRLSCAASGRTFIGYAMGWYRQAPGKVRELVAAFNWSGARTYYADSVKGRFTISRDNAKNTVYLQMNSLKPEDTAVYYCAAVPVTSQTKYGYWGQGTQVTVSS | high polyreactivity
34 | QVQLVESGGGLVQAGGSLRLSCAASGSIFSQYLMVWYRQAPGKERELVAAISWSGGHTYYADSVKGRFTISRDNAKNTVYLQMNSLKPEDTAVYYCATVPRKTPGNAELDYWGHGTQVTVSS | high polyreactivity
35 | QVQLVESGGGLVQAGGSLRLSCAASGRTFSRYAMGWYRRAPGKERELVAAITKSGGSTYYADSVKGRFTISRDNAKITVYLQMNSLKPEDTAVYYCAVRYGGRFFRKYDYWGQGTQVTVSS | high polyreactivity
36 | QVQLVESGGGLVQAGGSLRLSCAASGFIFKYYTMGWYRQAPGKERELVAAISKNAGSTYYADSVKGRFTISRDNAKNTVYLQMNSLKPEDTAVYYCARTYSTWYYYWGQGTQVTVSS | high polyreactivity
37 | QVQLVESGGGFVQAGGSLRLSCAASGSTFGYYVMGWYRQAPGKERELVAAISASGGSTYYADSVKGRFTISRDNAKHTVYLQMNSLKPEDTAVYYCAAGGYYVRYDYWGQGTQVTVSS | high polyreactivity
38 | QVQLVESGGGLVQAGGSLRLSSAGSGRTFLANAMGWYRQAPGKEREFVAAIDWRTGSTYYADSVKGRFTISRDNAKNTVYLLMNSLKPEDTAVYYCAKDSSSYYYAHFYDWGQGTQVTVSS | high polyreactivity
39 | QVQLEESGGGLVQAGGSLRLSCAASGSTFRYYAMGWYRQAHGKERELVAGISSSGGSTYYADSVKGRFTISRDNAKNTVYLQMNSLKPEDTAVYYCNAARGSSRSWAVFADYDYWGQGTQVTVSS | high polyreactivity
40 | QVHLVESGGGLVQAGASLRLSCAASGITFRFNAMGWYRQAPGKEREFVAAITYSGDSTYYADSVKGRFTISRDNAKNTVYLQMNSLKPEDTAVYYCAADYYAISRRMFYYWGQGTQVTVSS | low polyreactivity
41 | QVQLVESGGGLVQAGGSLRLSCAASGIIFAWNTMGWSRHPPGKERELVAAISSSGGSTYYADSVKGRFTISRDNAKNTVYLQMNSLKPEDTAVYYCAADGYHWIHEYDYWGQGTQVTVSS | low polyreactivity
42 | QVQLVESGGGLVQAGGSLRLSCAASGFTFRVYAMGWYRQAPGKERELVAVISGTGGRTYYADSVKGRFTISRDIAKNTVYLQMNSLKPEDTAVYYCARRGRPPAIYDYWGQGTQVTVSS | high polyreactivity
43 | QVQLVESGGGLVQAGGSLRLSCAASGFTFKRYAMGWYRQAPGKERELVAAISYGGSRTYYADSVKGRFTISRDNAKNTVYLQMNSLKPEDTAVYYCNFRRRTWHYITSMDYWGQGTQVTVSS | high polyreactivity
